Data reported in publication PMC11040352, “CD38‐Specific Gallium‐68 Labeled Peptide Radiotracer Enables Pharmacodynamic Monitoring in Multiple Myeloma with PET” (Advanced Science, 2024).
Starred links: 1 amine or outer side, 2 acyl side, 3 side chain; linkers in the order of their positions; H or OH if unused. Positions of bridges follow the written chain, without caps; N, C: chain ends. Primed or numbered codes have the meaning given here. *: point of attachment. NOTA = O=C(O)CN1CCN(CC(=O)O)CCN(CC(=O)*)CC1; TBMB = c1c(C[*:1])cc(C[*:3])cc1C[*:2]; PEG3′ = not defined here

Target: His-Tagged human CD38 (recombinant) (human) (UniProt P28907)
Assay: SPR; Biacore T200, CM5 chip, 25 °C; His-tagged CD38 captured by immobilised anti-His antibody (human about 860 RU, mouse 1360 RU); AJ206 as analyte, 300 × 10^-9 M down to 1.2 × 10^-9 M; PBS-P + 1% DMSO, pH 7.4; 50 µL/min; contact 120 s, dissociation 360 s

Kd: 0.0191 µM
Binder: {NOTA-PEG3′}-ACVPCADFPIWYC-NH2 (linker 2-5-13 via TBMB) [AJ206]
